Reference: patent US20220202905A1, “COMPOSITION FOR PREVENTING OR TREATING NEUROTROPHIC KERATITIS WHICH CONTAINS PACAP PEPTIDE OR STABILIZED PACAP PEPTIDE” (SENJU PHARMACEUTICAL CO., LTD., priority 2019, published 2022)
Square brackets hold non-standard residues; d marks the D form. Ala(1H-tetrazol-5-yl) = N[C@@H](Cc1nnn[nH]1)C(=O)O

T1: VPAC1 receptor (UniProt P32241 31-457, limits assumed)
T1 sequence (looked up): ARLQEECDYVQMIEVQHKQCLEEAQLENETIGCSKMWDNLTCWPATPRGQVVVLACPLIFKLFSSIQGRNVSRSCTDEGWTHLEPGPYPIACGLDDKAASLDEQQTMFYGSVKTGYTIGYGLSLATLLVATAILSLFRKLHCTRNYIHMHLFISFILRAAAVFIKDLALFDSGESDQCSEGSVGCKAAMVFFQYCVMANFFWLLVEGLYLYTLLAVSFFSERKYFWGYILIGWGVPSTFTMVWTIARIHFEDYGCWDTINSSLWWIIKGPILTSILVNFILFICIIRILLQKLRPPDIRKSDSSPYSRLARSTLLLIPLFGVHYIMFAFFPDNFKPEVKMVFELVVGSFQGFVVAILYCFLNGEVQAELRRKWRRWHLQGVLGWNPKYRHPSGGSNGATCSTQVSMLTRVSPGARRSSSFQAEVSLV

T2: PAC1 receptor (UniProt P41586 21-468, limits assumed)
T2 sequence (looked up): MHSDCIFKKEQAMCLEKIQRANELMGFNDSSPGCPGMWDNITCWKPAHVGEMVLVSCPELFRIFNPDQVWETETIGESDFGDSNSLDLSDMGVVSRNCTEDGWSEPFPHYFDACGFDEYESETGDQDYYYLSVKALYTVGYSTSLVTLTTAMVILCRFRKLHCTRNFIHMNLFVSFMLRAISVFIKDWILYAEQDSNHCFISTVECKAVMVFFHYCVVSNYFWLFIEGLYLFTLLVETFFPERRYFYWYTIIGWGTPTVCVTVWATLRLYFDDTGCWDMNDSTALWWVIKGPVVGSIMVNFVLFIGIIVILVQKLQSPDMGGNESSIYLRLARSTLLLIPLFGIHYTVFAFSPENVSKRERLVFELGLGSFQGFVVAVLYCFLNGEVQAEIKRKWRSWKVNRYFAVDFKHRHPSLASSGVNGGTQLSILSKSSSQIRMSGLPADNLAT

B1: Peptide 24 (peptide)
peptide: Ac-HA[Ala(1H-tetrazol-5-yl)]GIFT[Ala(1H-tetrazol-5-yl)]AYSRYRKQLAVKKYLAAVL-NH2
SMILES: CC[C@H](C)[C@H](NC(=O)CNC(=O)[C@H](Cc1nnn[nH]1)NC(=O)[C@H](C)NC(=O)[C@H](Cc1c[nH]cn1)NC(C)=O)C(=O)N[C@@H](Cc1ccccc1)C(=O)N[C@H](C(=O)N[C@@H](Cc1nnn[nH]1)C(=O)N[C@@H](C)C(=O)N[C@@H](Cc1ccc(O)cc1)C(=O)N[C@@H](CO)C(=O)N[C@@H](CCCNC(=N)N)C(=O)N[C@@H](Cc1ccc(O)cc1)C(=O)N[C@@H](CCCNC(=N)N)C(=O)N[C@@H](CCCCN)C(=O)N[C@@H](CCC(N)=O)C(=O)N[C@@H](CC(C)C)C(=O)N[C@@H](C)C(=O)N[C@H](C(=O)N[C@@H](CCCCN)C(=O)N[C@@H](CCCCN)C(=O)N[C@@H](Cc1ccc(O)cc1)C(=O)N[C@@H](CC(C)C)C(=O)N[C@@H](C)C(=O)N[C@@H](C)C(=O)N[C@H](C(=O)N[C@@H](CC(C)C)C(N)=O)C(C)C)C(C)C)[C@@H](C)O
B2: Peptide 27 (peptide)
peptide: Ac-HS[Ala(1H-tetrazol-5-yl)]GIFT[Ala(1H-tetrazol-5-yl)]AYSRYRKQAAVKKYLAAVL-NH2
SMILES: CC[C@H](C)[C@H](NC(=O)CNC(=O)[C@H](Cc1nnn[nH]1)NC(=O)[C@H](CO)NC(=O)[C@H](Cc1c[nH]cn1)NC(C)=O)C(=O)N[C@@H](Cc1ccccc1)C(=O)N[C@H](C(=O)N[C@@H](Cc1nnn[nH]1)C(=O)N[C@@H](C)C(=O)N[C@@H](Cc1ccc(O)cc1)C(=O)N[C@@H](CO)C(=O)N[C@@H](CCCNC(=N)N)C(=O)N[C@@H](Cc1ccc(O)cc1)C(=O)N[C@@H](CCCNC(=N)N)C(=O)N[C@@H](CCCCN)C(=O)N[C@@H](CCC(N)=O)C(=O)N[C@@H](C)C(=O)N[C@@H](C)C(=O)N[C@H](C(=O)N[C@@H](CCCCN)C(=O)N[C@@H](CCCCN)C(=O)N[C@@H](Cc1ccc(O)cc1)C(=O)N[C@@H](CC(C)C)C(=O)N[C@@H](C)C(=O)N[C@@H](C)C(=O)N[C@H](C(=O)N[C@@H](CC(C)C)C(N)=O)C(C)C)C(C)C)[C@@H](C)O
B3: Peptide 23 (peptide)
peptide: HSXAIFTXSYSRYRKQLAVKKYLAAVL
modifications: N-terminal acetyl (Ac-); Tz (aspartic acid with carboxyl group replaced by tetrazole) at positions 3 and 8; C-terminal amide (NH2)
B4: Peptide 21 (peptide)
peptide: Ac-HS[Ala(1H-tetrazol-5-yl)]GIFT[Ala(1H-tetrazol-5-yl)]SYSRYRRQLAVRRYLAAVL-NH2
SMILES: CC[C@H](C)[C@H](NC(=O)CNC(=O)[C@H](Cc1nnn[nH]1)NC(=O)[C@H](CO)NC(=O)[C@H](Cc1c[nH]cn1)NC(C)=O)C(=O)N[C@@H](Cc1ccccc1)C(=O)N[C@H](C(=O)N[C@@H](Cc1nnn[nH]1)C(=O)N[C@@H](CO)C(=O)N[C@@H](Cc1ccc(O)cc1)C(=O)N[C@@H](CO)C(=O)N[C@@H](CCCNC(=N)N)C(=O)N[C@@H](Cc1ccc(O)cc1)C(=O)N[C@@H](CCCNC(=N)N)C(=O)N[C@@H](CCCNC(=N)N)C(=O)N[C@@H](CCC(N)=O)C(=O)N[C@@H](CC(C)C)C(=O)N[C@@H](C)C(=O)N[C@H](C(=O)N[C@@H](CCCNC(=N)N)C(=O)N[C@@H](CCCNC(=N)N)C(=O)N[C@@H](Cc1ccc(O)cc1)C(=O)N[C@@H](CC(C)C)C(=O)N[C@@H](C)C(=O)N[C@@H](C)C(=O)N[C@H](C(=O)N[C@@H](CC(C)C)C(N)=O)C(C)C)C(C)C)[C@@H](C)O
B5: Peptide 22 (peptide)
peptide: Ac-HS[Ala(1H-tetrazol-5-yl)]GIFT[Ala(1H-tetrazol-5-yl)]SYSRYRRQLAVRRYLAAVLGRR-NH2
SMILES: CC[C@H](C)[C@H](NC(=O)CNC(=O)[C@H](Cc1nnn[nH]1)NC(=O)[C@H](CO)NC(=O)[C@H](Cc1c[nH]cn1)NC(C)=O)C(=O)N[C@@H](Cc1ccccc1)C(=O)N[C@H](C(=O)N[C@@H](Cc1nnn[nH]1)C(=O)N[C@@H](CO)C(=O)N[C@@H](Cc1ccc(O)cc1)C(=O)N[C@@H](CO)C(=O)N[C@@H](CCCNC(=N)N)C(=O)N[C@@H](Cc1ccc(O)cc1)C(=O)N[C@@H](CCCNC(=N)N)C(=O)N[C@@H](CCCNC(=N)N)C(=O)N[C@@H](CCC(N)=O)C(=O)N[C@@H](CC(C)C)C(=O)N[C@@H](C)C(=O)N[C@H](C(=O)N[C@@H](CCCNC(=N)N)C(=O)N[C@@H](CCCNC(=N)N)C(=O)N[C@@H](Cc1ccc(O)cc1)C(=O)N[C@@H](CC(C)C)C(=O)N[C@@H](C)C(=O)N[C@@H](C)C(=O)N[C@H](C(=O)N[C@@H](CC(C)C)C(=O)NCC(=O)N[C@@H](CCCNC(=N)N)C(=O)N[C@@H](CCCNC(=N)N)C(N)=O)C(C)C)C(C)C)[C@@H](C)O
B6: Peptide 25 (peptide)
peptide: Ac-HA[Ala(1H-tetrazol-5-yl)]GIFT[Ala(1H-tetrazol-5-yl)]SYSRYRKQAAVKKYLAAVL-NH2
SMILES: CC[C@H](C)[C@H](NC(=O)CNC(=O)[C@H](Cc1nnn[nH]1)NC(=O)[C@H](C)NC(=O)[C@H](Cc1c[nH]cn1)NC(C)=O)C(=O)N[C@@H](Cc1ccccc1)C(=O)N[C@H](C(=O)N[C@@H](Cc1nnn[nH]1)C(=O)N[C@@H](CO)C(=O)N[C@@H](Cc1ccc(O)cc1)C(=O)N[C@@H](CO)C(=O)N[C@@H](CCCNC(=N)N)C(=O)N[C@@H](Cc1ccc(O)cc1)C(=O)N[C@@H](CCCNC(=N)N)C(=O)N[C@@H](CCCCN)C(=O)N[C@@H](CCC(N)=O)C(=O)N[C@@H](C)C(=O)N[C@@H](C)C(=O)N[C@H](C(=O)N[C@@H](CCCCN)C(=O)N[C@@H](CCCCN)C(=O)N[C@@H](Cc1ccc(O)cc1)C(=O)N[C@@H](CC(C)C)C(=O)N[C@@H](C)C(=O)N[C@@H](C)C(=O)N[C@H](C(=O)N[C@@H](CC(C)C)C(N)=O)C(C)C)C(C)C)[C@@H](C)O
B7: Peptide 26 (peptide)
peptide: Ac-HS[Ala(1H-tetrazol-5-yl)]GIFT[Ala(1H-tetrazol-5-yl)]AYSRYRKALAVKKYLAAVL-NH2
SMILES: CC[C@H](C)[C@H](NC(=O)CNC(=O)[C@H](Cc1nnn[nH]1)NC(=O)[C@H](CO)NC(=O)[C@H](Cc1c[nH]cn1)NC(C)=O)C(=O)N[C@@H](Cc1ccccc1)C(=O)N[C@H](C(=O)N[C@@H](Cc1nnn[nH]1)C(=O)N[C@@H](C)C(=O)N[C@@H](Cc1ccc(O)cc1)C(=O)N[C@@H](CO)C(=O)N[C@@H](CCCNC(=N)N)C(=O)N[C@@H](Cc1ccc(O)cc1)C(=O)N[C@@H](CCCNC(=N)N)C(=O)N[C@@H](CCCCN)C(=O)N[C@@H](C)C(=O)N[C@@H](CC(C)C)C(=O)N[C@@H](C)C(=O)N[C@H](C(=O)N[C@@H](CCCCN)C(=O)N[C@@H](CCCCN)C(=O)N[C@@H](Cc1ccc(O)cc1)C(=O)N[C@@H](CC(C)C)C(=O)N[C@@H](C)C(=O)N[C@@H](C)C(=O)N[C@H](C(=O)N[C@@H](CC(C)C)C(N)=O)C(C)C)C(C)C)[C@@H](C)O
B8: Peptide 28 (peptide)
peptide: Ac-HS[Ala(1H-tetrazol-5-yl)]GIFT[Ala(1H-tetrazol-5-yl)]SYSRYRKAAAVKKYLAAVL-NH2
SMILES: CC[C@H](C)[C@H](NC(=O)CNC(=O)[C@H](Cc1nnn[nH]1)NC(=O)[C@H](CO)NC(=O)[C@H](Cc1c[nH]cn1)NC(C)=O)C(=O)N[C@@H](Cc1ccccc1)C(=O)N[C@H](C(=O)N[C@@H](Cc1nnn[nH]1)C(=O)N[C@@H](CO)C(=O)N[C@@H](Cc1ccc(O)cc1)C(=O)N[C@@H](CO)C(=O)N[C@@H](CCCNC(=N)N)C(=O)N[C@@H](Cc1ccc(O)cc1)C(=O)N[C@@H](CCCNC(=N)N)C(=O)N[C@@H](CCCCN)C(=O)N[C@@H](C)C(=O)N[C@@H](C)C(=O)N[C@@H](C)C(=O)N[C@H](C(=O)N[C@@H](CCCCN)C(=O)N[C@@H](CCCCN)C(=O)N[C@@H](Cc1ccc(O)cc1)C(=O)N[C@@H](CC(C)C)C(=O)N[C@@H](C)C(=O)N[C@@H](C)C(=O)N[C@H](C(=O)N[C@@H](CC(C)C)C(N)=O)C(C)C)C(C)C)[C@@H](C)O

What follows are binders tested against T1, VPAC1 receptor (assay: cell-based or functional assay).

Row | EC50 (VPAC1R), cAMP inducing effect [nM] | Binder
1 | 0.088 | B1
2 | 0.044 | B2
3 | 0.072 | B3
4 | 0.268 | B4
5 | 0.457 | B5
6 | 0.028 | B6
7 | 0.075 | B7
8 | 0.029 | B8

The binders below were run against T2, PAC1 receptor (assay: cell-based or functional assay).

Row | EC50 (PAC1R), cAMP inducing effect [nM] | Binder
9 | 0.083 | B1
10 | 0.06 | B2
11 | 0.079 | B3
12 | 0.102 | B4
13 | 0.13 | B5
14 | 0.088 | B6
15 | 0.066 | B7
16 | 0.084 | B8
